The values below come from ChEMBL document CHEMBL2396531, “Hybrid molecule from O2-(2,4-dinitrophenyl)diazeniumdiolate and oleanolic acid: a glutathione S-transferase π-activated nitric oxide prodrug with selective anti-human hepatocellular carcinoma activity and improved stability” (J Med Chem, 2013).

Substrate in the series: [H][C@]12CC=C3[C@]4([H])CC(C)(C)CC[C@]4(C(=O)O[C@@H]4O[C@H](CO)[C@H](O)[C@H](O)[C@H]4O)CC[C@@]3(C)[C@]1(C)CC[C@@]1([H])C(C)(C)[C@@H](OC(=O)CN3CCN(c4cc(O/N=[N+](/[O-])N(C)CCO)c([N+](=O)[O-])cc4[N+](=O)[O-])CC3)CC[C@]21C
The series is described as follows: Activity at GSTpi (unknown origin) by Michaelis-Menten equation. The format is ADME, Homo sapiens.

B1: Glutathione S-transferase P (Homo sapiens) (protein)
chain: MPPYTVVYFPVRGRCAALRMLLADQGQSWKEEVVTVETWQEGSLKASCLYGQLPKFQDGDLTLYQSNTILRHLGRTLGLYGKDQQEAALVDMVNDGVEDLRCKYISLIYTNYEAGKDDYVKALPGQLKPFETLLSQNQGGKTFIVGDQISFADYNLLDLLLIHEVLAPGCLDAFPLLSAYVGRLSARPKLKAFLASPEYVNLPINGNGKQ
In the case of B1, the Km was 342 µM, the maximum rate (Vmax) was found to be 15.1 µmol/min, the kcat was 6.95 s⁻¹ and the kcat/Km was found to be 20100 M⁻¹ s⁻¹.
